How the values were obtained:
PTH1R–Gq peptide = test: PTH1R-luciferase complementation reporter assay, Gq peptide; assay type: biochemical, human; conditions: PTH1R construct named by the receptor or protein whose sequence replaces ICL3 (WT = wild-type); Y axis of Figure 5G
Procedure: For PTH1R luciferase complementation reporter assays, cells were seeded the day prior to transfection at 25-30% confluence on 12-well plates. For each transfection, 0.5 μg DNA, 1.5 μl X-tremeGENE HP, and 100 μl Opti-MEM were combined, incubated for 15-20 min, and added to seeded wells. For each mutant, PTH1R-Gs peptide, PTH1R-Gq peptide and PTH1R-(no peptide) constructs were transfected in parallel. Spep and Qpep constructs were transfected 24 h prior to collection, and no-peptide constructs were transfected 18 h before collection. […] Media in each well was used to gently shear and resuspend the cells by pipetting. The cell mixture was centrifuged (3 min, 300g) and the media was aspirated. Cell pellet was resuspended in 1 ml PBS and centrifuged again as above. […] Cellular debris was removed by centrifugation (1,000g for 1 min). To collect additional vesicles, debris was resuspended in 0.3 ml PBS, briefly vortexed, and centrifuged again (1,000g for 1 min). The ~0.9 ml of combined decanted supernatant was centrifuged one additional time (1,000g for 2 min) to better remove cellular debris. […] Vesicle samples were collected in a 96-well clear bottom plate and assayed for TagRFP fluorescence (Tecan Spark, excitation 521 nm, emission 585 nm, gain 150). For each set of constructs for a given […] ([…] control), samples were diluted to the lowest TagRFP counts. […] The plate was tapped 2-3 times to mix, and the kinetic read was resumed. Moving averages were computed for each kinetic trace (3-point averages for 5 min equilibration, 8-point moving averages post-drug treatment). Each kinetic trace was normalized to the last point of the pre-drug equilibration. The maximum luminescence value that appeared stable over time was used for further analysis. Specific Spep and Qpep signals were calculated by subtracting the control value from the Spep value and the Qpep value for a given experiment.

PTH1R–Gs peptide = test: PTH1R-luciferase complementation reporter assay, Gs peptide; assay type: biochemical, human; conditions: PTH1R construct named by the receptor or protein whose sequence replaces ICL3 (WT = wild-type); X axis of Figure 5G
Procedure: For PTH1R luciferase complementation reporter assays, cells were seeded the day prior to transfection at 25–30% confluence on 12-well plates. For each transfection, 0.5 µg DNA, 1.5 µl X-tremeGENE HP, and 100 µl Opti-MEM were combined, incubated for 15–20 min, and added to seeded wells. […] Spep and Qpep constructs were transfected 24 h prior to collection, and no-peptide constructs were transfected 18 h before collection.
Expressed PTH1R-luciferase complementation constructs were vesiculated as previously described, with modifications for smaller sample volume[25]. Media in each well was used to gently shear and resuspend the cells by pipetting. The cell mixture was centrifuged (3 min, 300g) and the media was aspirated. Cell pellet was resuspended in 1 ml PBS and centrifuged again as above. Cells were resuspended again in 0.6 ml vesiculation buffer (10 mM HEPES pH 7.4, 150 mM NaCl, 20 mM CaCl2, 2 µg ml^−1 aprotinin, 2 µg ml^−1 leupeptin, 2 mM N-ethylmaleimide) and incubated at 30 °C with shaking at 180 rpm for 2 h. Cellular debris was removed by centrifugation (1,000g for 1 min). To collect additional vesicles, debris was resuspended in 0.3 ml PBS, briefly vortexed, and centrifuged again (1,000g for 1 min). The ~0.9 ml of combined decanted supernatant was centrifuged one additional time (1,000g for 2 min) to better remove cellular debris. Vesicles were collected by centrifugation (3,200g for 40 min at 4 °C) and washed in 0.5 ml assay buffer. Centrifugation step was repeated, and vesicles were resuspended in 0.1 ml assay buffer.
45 µl of each sample was transferred to an opaque 96-well flat bottom plate. 45 µl of Nano-Glo Substrate (Promega N1110) diluted 1:50 in assay buffer was added to each well in the new plate. After tapping the plate to collect liquid at the bottom of the well, a kinetic luminescence read was started (500 ms integration, continuous for 40 min) and luminescence signal was tracked. […] The plate was tapped 2–3 times to mix, and the kinetic read was resumed. Moving averages were computed for each kinetic trace (3-point averages for 5 min equilibration, 8-point moving averages post-drug treatment). Each kinetic trace was normalized to the last point of the pre-drug equilibration. The maximum luminescence value that appeared stable over time was used for further analysis. Specific Spep and Qpep signals were calculated by subtracting the control value from the Spep value and the Qpep value for a given experiment.

[1] = target: β2AR ICL3 FRET sensor, β2AR(L258Azi/Y350Azi/∆351–413) (Homo sapiens, UniProt P07550, L258F/Y350F); test: Time-correlated single photon counting FRET assay, β2AR ICL3 FRET sensor (AZDye488/AZDye546); conditions: in combination with isoproterenol
Procedure: Cell membranes were prepared following the procedure in ‘Crude cell membrane extracts’ through the first ultracentrifugation step (135,000g, 25 min, 4 °C). […] Solution was homogenized, first by passing through a 1 ml micropipette 10 times, then passing through a 20-gauge needle 10 times. To initiate the reaction, sodium ascorbate (50 mM) was added to the mixture and mixed by pipetting (2 ml final volume). Reactions were incubated with mild shaking (500 rpm) for 30 min at 25 °C.
For conditions without drug, peptide or nanobody, an equivalent volume of assay buffer was added. Reactions were equilibrated for 5 min prior to reading. […] Time-resolved fluorescence decay data were fit to the equation: Decay=α1e^−t/τ^1+α2e^−t/τ^2+α3e^−t/τ^3
Amplitude-weighted average lifetimes (τavg) were calculated from the three-exponential decay equation: τavg=(α1τ1+α2τ2+α3τ3)/(α1+α2+α3)
Each condition was performed in technical duplicate or triplicate, depending on sensor yield.

[2] = system: β2AR–Gs peptide FRET sensor; test: ∆FRET assay, β2AR–Gs peptide SPASM FRET sensor

Molecule | Specific Peptide Signal, Gq (Average) (PTH1R–Gq peptide) | Specific Peptide Signal, Gs (Average) (PTH1R–Gs peptide) | effect on FRET efficiency of the ICL3 FRET sensor treated with isoproterenol [1] | effect on agonist-induced FRET of β2AR–G peptide sensor ([2]; wild-type β2AR–Gs peptide FRET sensor) | effect on agonist-induced FRET of β2AR–G peptide sensor ([2]; β2AR(∆ICL3), Gs and Gq peptide sensors)
ADA1A (protein, UniProt P35348 1-466, looked up) Alpha-1A adrenergic receptor: MVFLSGNASDSSNCTQPPAPVNISKAILLGVILGGLILFGVLGNILVILSVACHRHLHSVTHYYIVNLAVADLLLTSTVLPFSAIFEVLGYWAFGRVFCNIWAAVDVLCCTASIMGLCIISIDRYIGVSYPLRYPTIVTQRRGLMALLCVWALSLVISIGPLFGWRQPAPEDETICQINEEPGYVLFSALGSFYLPLAIILVMYCRVYVVAKRESRGLKSGLKTDKSDSEQVTLRIHRKNAPAGGSGMASAKTKTHFSVRLLKFSREKKAAKTLGIVVGCFVLCWLPFFLVMPIGSFFPDFKPSETVFKIVFWLGYLNSCINPIIYPCSSQEFKKAFQNVLRIQCLCRKQSSKHALGYTLHPPSQAVEGQHKDMVRIPVGSRETFYRISKTDGVCEWKFFSSMPRGSARITVSKDQSSCTTARVRSKSFLQVCCCVGPSTPSLDKNHQVPTIKVHTISLSENGEEV | 0.14 | 0.59 | – | – | –
5HT2C (protein, UniProt P28335 33-458, looked up) 5-hydroxytryptamine receptor …: IVTDIFNTSDGGRFKFPDGVQNWPALSIVIIIIMTIGGNILVIMAVSMEKKLHNATNYFLMSLAIADMLVGLLVMPLSLLAILYDYVWPLPRYLCPVWISLDVLFSTASIMHLCAISLDRYVAIRNPIEHSRFNSRTKAIMKIAIVWAISIGVSVPIPVIGLRDEEKVFVNNTTCVLNDPNFVLIGSFVAFFIPLTIMVITYCLTIYVLRRQALMLLHGHTEEPPGLSLDFLKCCKRNTAEEENSANPNQDQNARRRKKKERRPRGTMQAINNERKASKVLGIVFFVFLIMWCPFFITNILSVLCEKSCNQKLMEKLLNVFVWIGYVCSGINPLVYTLFNKIYRRAFSNYLRCNYKVEKKPPVRQIPRVAATALSGRELNVNIYRHTNEPVIEKASDNEPGIEMQVENLELPVNPSSVVSERISSV | -0.00493 | 0.48 | – | – | –
Nb6B9: nanobody that binds the receptor’s cytosolic cavity in the active state (antibody, V domains shown) VH: QVQLQESGGGLVQAGGSLRLSCAASGSIFALNIMGWYRQAPGKQRELVAAIHSGGTTNYANSVKGRFTISRDNAANTVYLQMNSLKPEDTAVYYCNVKDFGAIIYDYDYWGQGTQVTVSS | – | – | quenched | significantly quenched FRET | quenched the interactions of both the Gs and Gq peptides with the receptor
DRD3 (protein, UniProt P35462 1-400, looked up) D(3) dopamine receptor: MASLSQLSGHLNYTCGAENSTGASQARPHAYYALSYCALILAIVFGNGLVCMAVLKERALQTTTNYLVVSLAVADLLVATLVMPWVVYLEVTGGVWNFSRICCDVFVTLDVMMCTASILNLCAISIDRYTAVVMPVHYQHGTGQSSCRRVALMITAVWVLAFAVSCPLLFGFNTTGDPTVCSISNPDFVIYSSVVSFYLPFGVTVLVYARIYVVLKQRRRKRILTRQNSQCNSVRPGFPQQTLSPDPAHLELKRYYSICQDTALGGPGFQERGGELKREEKTRNSLSPTIAPKLSLEVRKLSNGRLSTSLKLGPLQPRGVPLREKKATQMVAIVLGAFIVCWLPFFLTHVLNTHCQTCHVSPELYSATTWLGYVNSALNPVIYTTFNIEFRKAFLKILSC | 0.08 | 0.72 | – | – | –
CCK2 (protein, UniProt P32239 1-447, looked up) Gastrin/cholecystokinin type …: MELLKLNRSVQGTGPGPGASLCRPGAPLLNSSSVGNLSCEPPRIRGAGTRELELAIRITLYAVIFLMSVGGNMLIIVVLGLSRRLRTVTNAFLLSLAVSDLLLAVACMPFTLLPNLMGTFIFGTVICKAVSYLMGVSVSVSTLSLVAIALERYSAICRPLQARVWQTRSHAARVIVATWLLSGLLMVPYPVYTVVQPVGPRVLQCVHRWPSARVRQTWSVLLLLLLFFIPGVVMAVAYGLISRELYLGLRFDGDSDSDSQSRVRNQGGLPGAVHQNGRCRPETGAVGEDSDGCYVQLPRSRPALELTALTAPGPGSGSRPTQAKLLAKKRVVRMLLVIVVLFFLCWLPVYSANTWRAFDGPGAHRALSGAPISFIHLLSYASACVNPLVYCFMHRRFRQACLETCARCCPRPPRARPRALPDEDPPTPSIASLSRLSYTTISTLGPG | 0.12 | 0.42 | – | – | –
CNR1 (protein, UniProt P21554 1-472, looked up) Cannabinoid receptor 1: MKSILDGLADTTFRTITTDLLYVGSNDIQYEDIKGDMASKLGYFPQKFPLTSFRGSPFQEKMTAGDNPQLVPADQVNITEFYNKSLSSFKENEENIQCGENFMDIECFMVLNPSQQLAIAVLSLTLGTFTVLENLLVLCVILHSRSLRCRPSYHFIGSLAVADLLGSVIFVYSFIDFHVFHRKDSRNVFLFKLGGVTASFTASVGSLFLTAIDRYISIHRPLAYKRIVTRPKAVVAFCLMWTIAIVIAVLPLLGWNCEKLQSVCSDIFPHIDETYLMFWIGVTSVLLLFIVYAYMYILWKAHSHAVRMIQRGTQKSIIIHTSEDGKVQVTRPDQARMDIRLAKTLVLILVVLIICWGPLLAIMVYDVFGKMNKLIKTVFAFCSMLCLLNSTVNPIIYALRSKDLRHAFRSMFPSCEGTAQPLDNSMGDSDCLHKHANNAASVHRAAESCIKSTVKIAKVTMSVSTDTSAEAL | 0.10 | 0.53 | – | – | –
